From patent US20090018070A1 (LABORATOIRES SERONO, published 2009)

T1: human FSH receptor (human, UniProt P23945 18-695)
T1 sequence (looked up): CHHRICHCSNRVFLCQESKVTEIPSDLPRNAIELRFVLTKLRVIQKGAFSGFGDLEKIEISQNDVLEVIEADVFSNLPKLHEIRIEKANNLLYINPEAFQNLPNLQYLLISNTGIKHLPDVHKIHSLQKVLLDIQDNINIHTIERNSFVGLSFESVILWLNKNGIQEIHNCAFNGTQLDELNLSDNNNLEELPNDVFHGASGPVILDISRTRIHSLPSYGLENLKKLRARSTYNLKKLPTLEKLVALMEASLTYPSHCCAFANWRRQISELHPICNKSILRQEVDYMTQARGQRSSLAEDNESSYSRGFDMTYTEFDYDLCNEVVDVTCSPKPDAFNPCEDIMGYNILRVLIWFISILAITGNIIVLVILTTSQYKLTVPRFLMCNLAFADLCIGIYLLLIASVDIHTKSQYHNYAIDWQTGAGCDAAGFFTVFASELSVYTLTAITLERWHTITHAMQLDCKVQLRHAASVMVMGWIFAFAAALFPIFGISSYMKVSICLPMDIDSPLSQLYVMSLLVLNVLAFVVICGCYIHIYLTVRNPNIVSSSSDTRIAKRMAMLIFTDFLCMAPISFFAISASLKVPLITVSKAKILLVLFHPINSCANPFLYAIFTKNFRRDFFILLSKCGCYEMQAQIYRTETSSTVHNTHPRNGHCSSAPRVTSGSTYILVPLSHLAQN

B1: GNRT mutant FSH (Clone 10C, alpha GNRT / beta GM1) (ligand)
chain 1: not shown
chain 2: NSCELTNITIAIEKEECRFCISINTTWCAGYCYTRDLVYKDPARPKIQKTCTFKNLTYETVRVPGCAHHADSLYTYPVATQCHCGKCDSDSTDCTVRGLGPSYCSFGEMKE
B2: GNFT mutant FSH (Clone 11C, alpha GNFT / beta GM1) (ligand)
chain 1: not shown
chain 2: B1 chain 2

Molecular target: T1, human FSH receptor
Experiment: cell-based or functional assay

Row | Binder | EC50 of cAMP production in CHO-FSHR cells [nM]
1 | B1 | 0.258
2 | B2 | 0.278
